What was measured:
pro-E-cadherin (human) = pro-E-cadherin (human) (UniProt P12830); assay: co-IP
pro-N-cadherin (human) = pro-N-cadherin (human) (UniProt P19022); assay: co-IP
Sequence of UniProt P19022 (P19022 26-906): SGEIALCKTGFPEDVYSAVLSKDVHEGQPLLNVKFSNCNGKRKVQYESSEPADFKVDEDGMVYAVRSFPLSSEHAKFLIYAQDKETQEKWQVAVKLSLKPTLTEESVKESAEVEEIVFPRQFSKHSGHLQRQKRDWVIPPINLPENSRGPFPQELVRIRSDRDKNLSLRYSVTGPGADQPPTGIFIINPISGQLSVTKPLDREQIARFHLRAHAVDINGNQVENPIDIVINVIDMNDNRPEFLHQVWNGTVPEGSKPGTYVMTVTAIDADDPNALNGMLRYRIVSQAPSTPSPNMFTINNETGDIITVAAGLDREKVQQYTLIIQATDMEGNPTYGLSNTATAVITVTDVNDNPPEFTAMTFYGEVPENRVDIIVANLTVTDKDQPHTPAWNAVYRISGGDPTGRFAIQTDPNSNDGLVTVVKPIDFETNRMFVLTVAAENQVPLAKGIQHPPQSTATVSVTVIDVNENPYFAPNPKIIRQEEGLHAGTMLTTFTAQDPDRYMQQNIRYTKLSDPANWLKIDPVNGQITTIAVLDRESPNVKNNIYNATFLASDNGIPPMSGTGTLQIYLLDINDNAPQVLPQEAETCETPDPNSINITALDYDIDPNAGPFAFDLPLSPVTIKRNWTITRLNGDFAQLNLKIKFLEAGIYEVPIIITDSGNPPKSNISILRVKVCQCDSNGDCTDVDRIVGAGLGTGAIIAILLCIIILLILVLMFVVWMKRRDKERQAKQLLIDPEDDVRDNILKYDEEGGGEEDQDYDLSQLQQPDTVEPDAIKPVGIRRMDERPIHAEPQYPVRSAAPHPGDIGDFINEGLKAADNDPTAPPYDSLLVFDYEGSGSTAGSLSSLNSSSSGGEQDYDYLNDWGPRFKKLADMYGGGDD

Sequence of UniProt P12830 (P12830 23-882): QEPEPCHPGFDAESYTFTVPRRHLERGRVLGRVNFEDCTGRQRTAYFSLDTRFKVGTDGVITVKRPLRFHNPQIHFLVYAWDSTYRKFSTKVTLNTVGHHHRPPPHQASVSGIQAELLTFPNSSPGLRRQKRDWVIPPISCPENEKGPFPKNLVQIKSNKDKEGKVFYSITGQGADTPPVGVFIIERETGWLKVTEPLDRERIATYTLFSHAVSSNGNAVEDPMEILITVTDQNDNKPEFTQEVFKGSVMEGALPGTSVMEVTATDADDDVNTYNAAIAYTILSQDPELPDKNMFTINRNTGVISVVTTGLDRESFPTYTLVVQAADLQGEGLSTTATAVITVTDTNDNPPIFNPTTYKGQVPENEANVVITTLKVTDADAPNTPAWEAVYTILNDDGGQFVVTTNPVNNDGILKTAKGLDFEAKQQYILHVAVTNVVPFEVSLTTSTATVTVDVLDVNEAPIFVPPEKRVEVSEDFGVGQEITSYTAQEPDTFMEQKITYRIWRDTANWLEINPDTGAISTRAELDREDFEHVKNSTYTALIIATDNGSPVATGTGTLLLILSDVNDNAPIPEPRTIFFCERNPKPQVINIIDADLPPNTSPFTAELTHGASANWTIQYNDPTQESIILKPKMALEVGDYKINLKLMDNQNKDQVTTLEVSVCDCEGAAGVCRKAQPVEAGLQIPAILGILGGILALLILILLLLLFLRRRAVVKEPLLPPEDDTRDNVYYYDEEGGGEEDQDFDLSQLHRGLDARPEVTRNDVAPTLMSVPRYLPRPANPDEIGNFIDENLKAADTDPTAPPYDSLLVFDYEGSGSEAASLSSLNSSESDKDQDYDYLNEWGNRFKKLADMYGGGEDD

percent of pro-cadherin molecules in a complex with α-catenin (pro-E-cadherin (human)): 81% | percent of pro-cadherin molecules in a complex with α-catenin (pro-N-cadherin (human)): 92%
Substance: α-catenin (from UniProt P35221 1-906) (natural protein)

— publication PMC2742162
